Positions count from the first letter of the chain named. Where “and” joins values, the source holds several entries; their conditions need not be identical. Equal values may be shown once. Read-outs that look alike come from different tables or passages of the source.
T1: IL-18 (Homo sapiens, UniProt Q14116)
T1 sequence (Q14116 37-193): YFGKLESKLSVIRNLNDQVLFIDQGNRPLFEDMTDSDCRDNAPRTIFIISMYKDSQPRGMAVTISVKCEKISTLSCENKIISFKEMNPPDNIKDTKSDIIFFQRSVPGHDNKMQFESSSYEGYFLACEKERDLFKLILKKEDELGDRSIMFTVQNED

T2: human interleukin-18 (Homo sapiens, UniProt Q14116)
T2 sequence (Q14116 37-193): T1 sequence (Q14116 37-193)

T3: IL-18 previously complexed to IL-18BP (Homo sapiens, UniProt Q14116)
T3 sequence (Q14116 37-193): T1 sequence (Q14116 37-193)
T3 sequence (O95998 31-194 partner): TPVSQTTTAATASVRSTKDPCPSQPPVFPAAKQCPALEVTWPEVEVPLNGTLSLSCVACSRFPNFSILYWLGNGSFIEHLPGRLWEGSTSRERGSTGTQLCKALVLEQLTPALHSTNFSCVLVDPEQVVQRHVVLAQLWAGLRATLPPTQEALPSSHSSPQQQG

B1: Antibody 107C6: monoclonal anti-IL-18 antibody; VH SEQ ID NO 9, VK SEQ ID NO 10 (antibody, V domains shown)
VH: QIQLVQSGPELKKPGETVKLSCRASGYTFTNYGMNWVKQAPGKGLKWMGWINTYSGVPTYADDFKGQFAFSLETSAATAFLQINNLKDEDTATYFCAREGYSTTRSMDYWGQGTSVTVSS
VL: DIVMSQSPSSLAVSAGEKVTMSCKSSQSLLDSRTRKNYLVWYQQKPGQSPKLLIYWASTRGSGVPDRFTGSGSGTDFTLTISSVQAEDLAVYYCKQSYNLRTFGGGTKLEIK
modifications: Antibody 107C6 VH variable domain sequence; Antibody 107C6 VK variable domain sequence
B2: Antibody 108F8: monoclonal anti-IL-18 antibody; VH SEQ ID NO 11, VK SEQ ID NO 12 (antibody, V domains shown)
VH: B1 VH with E10D, L11S
VL: B1 VL
modifications: Antibody 108F8 VH variable domain sequence; Antibody 108F8 VK variable domain sequence
B3: Antibody 132H4: monoclonal anti-IL-18 antibody; VH SEQ ID NO 23, VK SEQ ID NO 24 (antibody, V domains shown)
VH: EVKLVESGGGLVKPGGSLKLSCAASGFTFSNYAMSWVRQNPAKRLEWVATISSGGANIYYPDSVKGRFIISRDNARNTLYLQMSSLRSEDTAMYYCARGDYFNHFWFAYWGQGTLVTVSA
VL: DVLMTQTPLSLPVSLGDQASISCRSSQSIVHSNGNTYLEWYLQKPGQSPKFLIYKVSNRFSGVPDRFSGSGSGTDFTLKINRVEAEDLGIYYCFQGSHVPWTFGGGTKLEIK
modifications: Antibody 132H4 VH variable domain sequence; Antibody 132H4 VK variable domain sequence
B4: Antibody 109A6: monoclonal anti-IL-18 antibody; VH SEQ ID NO 13, VK SEQ ID NO 14 (antibody, V domains shown)
VH: EVQLQQSGAELVKPGASVKLSCTASGFKIKDTYIHWVIQRPAQGLEWIGRIDPANGNTIYGSKFQGKATLTADTSSNTAYIHLSSLTSGDSAVYYCAGYVWFAYWGQGTLVTVSA
VL: DVVMTQVPLSLPVSLGDQASISCRSSQRLVHSNGNTYLHWFLQKPGQSPKLLIYTVSNRFSGVPDRFSGSGSGTDFTLKISRVEAEDLGVYFCSQSTLVPWTFGGGTKLEIK
modifications: Antibody 109A6 VH variable domain sequence; Antibody 109A6 VK variable domain sequence
B5: Antibody 131B4: monoclonal anti-IL-18 antibody; VH SEQ ID NO 18, 103 or 109, VK SEQ ID NO 19 (antibody, V domains shown)
VH: B4 VH with L4V, V37L, I38K, A42E, L70I, H82Q, S91T, Y95F
VL: DAVLTQTPLSLPVSLGDQASISCTSSQSLVHSNGNTYLHWYLQKPGQSPKLLIYKVSDRFSGVPDRFSGSGSGTDFTLMITRVEAEDLGVYFCSQSSLVPWTFGGGTKLEVK

Tests used:
IL-18 [1] = molecular target: T1, IL-18; test: Luminex screening second step: biotinylated IL-18BP binding on IL-18 previously complexed to monoclonal antibody
From the text: Second step. Potential antibodies targeting IL-18 on IL-18BP binding site were rescreened in competition with IL-18BP, but not with IL-18BP fusions with Fc antibody domains, or other type of fusions, in order to prevent false antibody positive candidates due to steric hindrance created by the fused peptide. For this, monoclonal antibodies were bound to Luminex beads carrying IL-18. The complex was then exposed to biotinylated IL-18BP in order to identify interference to previously identified anti-IL-18 antibodies (see Table 7, Column #2).

human interleukin-18 = molecular target: T2, human interleukin-18; test: Luminex screening first step: monoclonal antibodies binding on IL-18; conditions: IL-18 attached to Luminex beads
From the text: Mice were vaccinated against human interleukin-18 using a technology allowing immunization with properly folded proteins. Prior to immunization, genetically modified mice were selected for major histocompatibility complexes supposedly sensitive to IL-18 surface area epitopes binding IL-18BP. Following immunization, B cells were isolated from spleen and hybridized following standard hybridoma technology. Hybridoma were sorted onto microplates and then tested for expression of monoclonal anti-IL-18 antibodies targeting IL-18 epitopes included in IL-18BP binding site. The screening was performed in 3 sequential and selective steps: […]

[2] = molecular target: T3, IL-18 previously complexed to IL-18BP; test: Luminex screening third step: monoclonal antibody binding on IL-18 previously complexed to IL-18BP; conditions: for fluorescence signal after binding IL-18 in the presence of IL-18BP: third screening step
From the text: Third step. A third screening program was undertaken with Luminex beads linked to IL-18BP and then complexed to interleukin-18, assuring the presentation of properly folded recombinant IL-18 to positive antibody candidates.

IL-18 [3] = molecular target: T1, IL-18; test: KD of monoclonal antibodies by titration with a defined IL-18 molarity (EC50, Law of Mass Action); format: binding
Description: The respective KD values of each monoclonal antibody was calculated following titration of the antibodies with a defined IL-18 molarity and derived from the obtained EC50 values with the Law of Mass Action (see above).

| Molecule | IL-18BP binding on IL-18 previously complexed to monoclonal antibody, Fluorescence intensity (IL-18 [1]) | Monoclonal antibodies binding on IL-18, Fluorescence intensity (human interleukin-18) | fluorescence signal after binding IL-18 in the presence of IL-18BP [2] | Kd (IL-18 [3]; mean of determinations, read-out: KD, Mean) | Kd (IL-18 [3]; single determinations, read-out: KD) | Column #3 Monoclonal antibody binding on IL-18 previously complexed to IL-18BP, Fluorescence intensity ([2]; Luminex beads linked to IL-18BP, complexed to IL-18) |
| --- | --- | --- | --- | --- | --- | --- |
| B1 | 1 389 | 26 250 | very low fluorescence signal |  |  |  |
| B2 | 1 292 | 25 126 | very low fluorescence signal |  |  |  |
| B3 | 1 488 | 23 839 | very low fluorescence signal |  |  |  |
| B4 |  | 25 848 | very low fluorescence signal |  |  |  |
| B5 | 1 656 | 24 838 | very low fluorescence signal | 0.015 nM | 0.02 nM and 0.01 nM | 41 |

From patent publication US12679888B2, “IL-18 binding protein (IL-18BP) and antibodies for treating inflammatory diseases” (AB2 BIO SA, priority 2015, dated 2026)
